Consider 5 molecules from PMC8615638, “Tumor Marker B7-H6 Bound to the Coiled Coil Peptide-Polymer Conjugate Enables Targeted Therapy by Activating Human Natural Killer Cells” (Biomedicines, 2021).

Several values for one entry are separate records, joined by “and”; a condition that tells them apart may be missing. Equal entries are not always repeated. Where no end group is shown, it is not given here.

To fix the notation:
B1: coiled coil B7-H6 (B7-H6CC) (ligand)
chain: ITGDLKVEMMAGGTQITPLNDNVTIFCNIFYSQPLNITSMGITWFWKSLTFDKEVKVFEFFGDHQEAFRPGAIVSPWRLKSGDASLRLPGIQLEEAGEYRCEVVVTPLKAQGTVQLEVVASPASRLLLDQVGMKENEDKYMCESSGFYPEAINITWEKQTQKFPHPIEISEDVITGPTIKNMDGTFNVTSSLKLNSSQEDPGTVYQCVVRHASLHTPLRSNFTGTVAALKEKVAALKEKVAALKEKVAALKEK
notes: additional N-terminal residues from the vector; B7-H6, extracellular domain, residues D25-T244 with stabilizing mutation C212S; GT and the (VAALKEK)4 coiled coil motif (peptide K), written out from -GT(VAALKEK)4H8G; C-terminus is -GT(VAALKEK)4H8G: the His8 is followed by a final G. In the flow cytometry the protein was labelled with AlexaFluor647 by NHS chemistry; Six N-glycosylation sites; also …

The target in data set [1] is NKp30 (Homo sapiens) (UniProt O14931). Description: BLI. As to conditions: cited from earlier work.
Data set [2] deals with the molecule itself. Description: AUC; sedimentation velocity of B7-H6CC alone; 20 °C, 48,000 rpm, absorbance 280 nm, SEC buffer; monomer-dimer equilibrium.
Data set [3] addresses B1. Description: flow cytometry on cells; PolCC mixed with AlexaFluor647-labelled B7-H6CC and scFvCC (AlexaFluor488-labelled or not); complexes carried to CAIX-expressing cells by scFvCC and B7-H6CC detected on the cells; 45 min on ice, 1 µM polymer. Conditions: both partners purified. Background: In flow cytometry, cells or beads pass a laser one at a time.
For data set [4], the target named is B1. Briefly: AUC; sedimentation velocity, PolCC+ titrated with B7-H6CC; 20 °C, 42,000 rpm, 280 nm, SEC buffer. As to conditions: both partners purified.
For data set [5], the target named is B1. Description: AUC; sedimentation velocity, B7-H6CC titrated with NKp30; 20 °C, 48,000 rpm, 280 nm, SEC buffer; sw isotherm fitted with A + B <=> AB. Conditions: both partners purified.
Data set [6] concerns the target T1, high-affinity B7-H6 (haB7-H6; S60Y, F82W, L129Y) (UniProt Q68D85 25-245, C212S | S60Y | F82W | L129Y).
T1 construct: same doubt on the C-terminal limit (L245 or T244); also called untagged haB7-H6; source: HEK293T (suspension-adapted), transient transfection, secreted, purified (IMAC, SEC)
T1 sequence (looked up): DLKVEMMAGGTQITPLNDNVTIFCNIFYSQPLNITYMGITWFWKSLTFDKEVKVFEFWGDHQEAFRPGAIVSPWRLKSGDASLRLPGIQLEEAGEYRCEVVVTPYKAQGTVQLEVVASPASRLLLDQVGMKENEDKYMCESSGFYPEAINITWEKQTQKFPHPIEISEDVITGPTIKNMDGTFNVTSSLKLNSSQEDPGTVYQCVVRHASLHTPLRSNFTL
Description: ITC; NKp30 (124-182 µM) injected into a cell with the B7-H6 variant (15.6-25.0 µM); 25 °C; 10 mM HEPES, 150 mM NaCl, 10 mM NaN3, pH 7.5; fitted as A + B <=> AB, N = 1 - incompetent fraction of B7-H6. Conditions: both partners purified. For orientation: ITC needs no label: the signal is the heat of the interaction.

Data set [7] has as its target T2, high-affinity coiled coil B7-H6 (haB7-H6CC; S60Y, F82W, L129Y) (UniProt Q68D85 25-244, C212S | S60Y | F82W | L129Y).
T2 construct: additional N-terminal residues from the vector, as in B7-H6CC; GT and the (VAALKEK)4 coiled coil motif, as in B7-H6CC; C-terminus -GT(VAALKEK)4H8G; source: HEK293T (suspension-adapted), transient transfection, secreted, purified (IMAC, SEC); not shown: His8 (H8G), C-terminal, kept
T2 sequence: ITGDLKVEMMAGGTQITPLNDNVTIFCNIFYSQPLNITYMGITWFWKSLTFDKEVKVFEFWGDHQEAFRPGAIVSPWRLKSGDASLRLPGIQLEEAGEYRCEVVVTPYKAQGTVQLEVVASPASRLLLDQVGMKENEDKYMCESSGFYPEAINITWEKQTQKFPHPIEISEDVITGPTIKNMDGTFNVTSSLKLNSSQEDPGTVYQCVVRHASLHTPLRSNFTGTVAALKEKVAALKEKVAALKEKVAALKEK
Described as above. As to conditions: both partners purified.

Data set [8] deals with B1. The description is as above. As to conditions: both partners purified.
Data set [9] has as its target T3, wild-type B7-H6 (extracellular domain of B7-H6 without the coiled coil tag, C212S) (UniProt Q68D85 25-245, C212S).
T3 construct: B7-H6, extracellular domain, residues D25-L245 with stabilizing mutation C212S; cloned as described previously [37]; also called non-modified B7-H6; soluble B7-H6 construct; source: HEK293T (suspension-adapted), transient transfection, secreted, purified (IMAC, SEC)
T3 sequence (looked up): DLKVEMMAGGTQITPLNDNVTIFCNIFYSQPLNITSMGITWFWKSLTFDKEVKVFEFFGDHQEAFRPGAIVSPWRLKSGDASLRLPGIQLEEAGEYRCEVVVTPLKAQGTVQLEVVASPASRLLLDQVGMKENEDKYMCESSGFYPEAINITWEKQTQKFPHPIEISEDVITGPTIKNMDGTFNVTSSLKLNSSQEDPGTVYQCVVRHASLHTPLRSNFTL
The description is as above. As to conditions: both partners purified.

As to B7-H6 IgV domain (from UniProt Q68D85), in data set [1], the Kd was 409 nM.
As to B1, in data set [2], the “stoichiometry N” value was 2.

B2: PolCC: pHPMA copolymer conjugated with (VAALEKE)4 coiled coil peptides (other)
peptide: VAALEKEVAALEKEVAALEKEVAALEKE
modifications: also: attached to pHPMA copolymer via azide-alkyne cycloaddition, site not given here
notes: (VAALEKE)4 coiled coil peptide, written out from the printed repeat; 56 kDa conjugate with approximately eight coiled coil peptides on each polymer chain (40% w/w); the polymer also carries biotin; The polymer itself is no protein; also called coiled coil peptide-polymer conjugate; pHPMA-(VAALEKE)4; source: synthetic peptide attached to HPMA copolymer by click chemistry, as described previously …
Regarding B2, in data set [3], the binding result is given as “binds”.

B3: PolCC+: HPMA copolymer of increased length conjugated with (VAALEKE)4 coiled coil peptides (other)
peptide: VAALEKEVAALEKEVAALEKEVAALEKE
modifications: also: attached to HPMA copolymer via copper-free click chemistry, site not given here
notes: (VAALEKE)4 coiled coil peptide, written out from the printed repeat; 130 kDa conjugate with approximately ten coiled coil peptides on each polymer chain (26% w/w); the polymer also carries biotin; Synthesis details are in File S1; source: synthetic peptide attached to HPMA copolymer (RAFT polymerization, copper-free click chemistry); purified by SEC; copies: 10
As for B3, the binding result in data set [4] was “binds”.

B4: NKp30 ligand-binding domain (residues L19-E130, receptor ectodomain without stalk region) (receptor, UniProt O14931 19-130, looked up)
chain: LWVSQPPEIRTLEGSSAFLPCSFNASQGRLAIGSVTWFRDEVVPGKEVRNGTPEFRGRLAPLASSRFLHDHQAELHIRDVRGHDASIYVCRVEVLGLGVGTGNGTRLVVEKE
notes: cloned as described previously [37]; source: HEK293T (suspension-adapted), transient transfection, secreted, purified (IMAC, SEC)
In the case of B4, the dissociation constant (Kd) in data set [5] worked out at 895 nM; in data set [6], 115 nM; in data set [7] it was 259 nM; in [8], 787 nM; in data set [9] it was 668 nM. Further, the “stoichiometry N” value in data set [5] is 0.78 and 1; in data set [6] it was 0.91; in [7], 0.65; in [8], 0.74; in data set [9], 0.88. The dH in data set [6] was -12.7 kcal/mol; in data set [7], -11.8 kcal/mol; in data set [8] it was -11.2 kcal/mol; in data set [9] it was -11.5 kcal/mol.

By Kd is commonly meant the equilibrium constant for the complex coming apart. For orientation: stoichiometry N means the number of molecules, sites or subunits per partner or assembly.
